Target: human RNF128 (GRAIL) extracellular domain (human) (UniProt Q8TEB7)
Experiment: SPR; Biacore T100; biotinylated ECD (ligand) captured on a streptavidin (SA) series S chip, ~100-200 RU; non-biotinylated VHH as analyte in HBS-P+ buffer, twofold dilutions from 500 nM (RNF128 E2, RNF130 D1) or 1000 nM (RNF43 C8); injection 60 s at 30 ul/min, dissociation 240 s; regeneration 1 x 10 sec glycine pH 2.5; 1:1 Langmuir model or equilibrium

human RNF128 (GRAIL) extracellular domain (human), sequence (Q8TEB7 39-428): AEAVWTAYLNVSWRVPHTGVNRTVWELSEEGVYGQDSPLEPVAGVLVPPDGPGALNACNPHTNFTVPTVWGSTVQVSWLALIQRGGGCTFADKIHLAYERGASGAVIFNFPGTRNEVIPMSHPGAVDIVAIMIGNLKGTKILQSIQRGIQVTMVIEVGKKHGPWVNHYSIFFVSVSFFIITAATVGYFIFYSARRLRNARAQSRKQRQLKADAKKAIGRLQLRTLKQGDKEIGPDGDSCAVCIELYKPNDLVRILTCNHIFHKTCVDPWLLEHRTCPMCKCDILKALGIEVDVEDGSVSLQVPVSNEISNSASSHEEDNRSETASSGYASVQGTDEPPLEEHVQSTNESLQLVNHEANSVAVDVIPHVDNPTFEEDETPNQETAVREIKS

B1: RNF128-E2 nanobody (VHH)
VHH: QVQLQESGGGLVQAGGSLRLSCAASGSISGGKGMGWYRQAPGKEREFVAAIGSGAITYYADSVKGRFTISRDNAKNTVYLQMNSLKPEDTAVYYCAVYTTALDEYPYWGQGTQVTVSS
B1 showed a Kd of 10 nM.

Source: paper PMC10127277
